The supplement of paper PMC10567573

B1: FBXO39 (parent)
chain: PSRVHASEVESAVWYVKKFGRYLE

Variants of: B1
Assay: protein stability index of a GFP-peptide fusion (GPS, HEK-293T) (PSI 1-6); higher = more stable
Details: c terminus: a fixed tail appended
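Further: lentivirally expressed fusions sorted by FACS into six bins by GFP to DsRed ratio, PSI derived from sequencing read proportions per bin multiplied by bin number.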

Protein stability index: each site, then its substitutions
H5: N 2.36, P 2, Q 2.69, R 1.36, S 2.05, T 1.43, V 1.68, W 2.86, Y 1.43
A6: C 2.08, D 2.46, E 2.32, F 3.3, G 1.97, H 1.76, I 2.06, K 1.79, L 2.24, M 1.27, N 1.74, P 1.82, Q 2.11, R 1.56, S 2.72, T 2.4, V 1.7, W 2.48, Y 1.58
S7: A 2.22, C 1.48, D 2.68, E 2.09, F 1.97, G 1.66, H 2.24, I 1.84, K 1.67, L 1.64, M 1.81, N 2.12, P 2.33, Q 2.36, R 1.48, T 1.77, V 2.13, W 1.59, Y 2.4
E8: A 3.81, C 2.27, D 2.08, F 4.46, G 1.7, H 2.38, I 2.11, K 2.76, L 2.36, M 3.03, N 1.56, P 2.75, Q 1.85, R 3.41, S 1.68, T 1.7, V 1.46, W 1.42, Y 3.1
V9: A 2.09, C 2.48, D 2.96, E 3.31, F 1.62, G 3.35, H 2.29, I 2.01, K 1.92, L 1.83, M 1.92, N 2.56, P 2.33, Q 2.35, R 2.34, S 2.62, T 2.33, W 1.61, Y 1.94
E10: A 1.64, C 1.99, D 1.84, F 2.31, G 1.41, H 1.65, I 1.85, K 2.21, L 3.06, M 1.49, N 1.66, P 2.04, Q 2.17, R 2.37, S 2.51, T 2.69, V 1.54, Y 2
S11: A 2.03, C 2.4, D 2.49, E 2.57, F 1.74, G 1.84, H 2.08, I 2.1, K 2.91, L 1.99, M 2.17, N 1.97, P 1.95, Q 1.64, R 2.07, T 2.03, V 1.57, W 1.54, Y 2.07
A12: C 1.49, D 2.13, E 3.02, F 1.28, G 2.02, H 2.83, I 2.34, K 2, L 2.08, M 2.16, N 3.01, P 2.25, Q 3.27, R 2.54, S 2.18, T 2.08, V 1.29, W 2.98, Y 1.65
V13: A 2.44, C 1.95, D 2.9, E 2.96, F 1.45, G 2.4, H 2.72, I 1.61, K 1.78, L 2.5, M 2.13, N 3.09, P 3.59, Q 2.73, R 2.17, S 2.57, T 1.96, W 1.6, Y 1.43
W14: A 2.96, C 3.17, D 3.84, E 2.8, F 1.73, G 2.89, H 3.44, I 2.38, K 2.67, L 2.32, M 3.3, N 3.68, P 2.96, Q 2.87, R 2.58, S 3.22, T 3.68, V 2.64, Y 2.18
Y15: A 2.07, C 1.74, D 3.73, E 2.45, F 1.42, G 2.84, H 2.65, I 1.58, K 2.53, L 2.34, M 2.9, N 3.31, P 2.61, Q 2.74, R 2.21, S 2.4, T 2.09, V 1.41, W 1.15
V16: A 2.4, C 2.65, D 3.18, E 2.96, F 1.83, G 2.81, H 3.32, I 1.72, K 3.01, L 1.87, M 2.65, N 3.18, P 2.54, Q 2.5, R 3.17, S 3.08, T 2.43, W 2.27, Y 2.44
K17: A 2, C 1.34, D 2.25, E 2.35, F 1.87, G 2.57, H 2.1, I 2.39, L 2.52, M 1.91, N 2.82, P 1.89, Q 2.27, R 3.25, S 2.84, T 1.77, V 1.9, W 1.61, Y 2.66
K18: A 1.65, C 2.36, D 2.33, E 2.37, F 1.95, G 2.02, H 1.89, I 2.93, L 1.79, M 1.82, N 1.88, P 2.07, Q 1.75, R 1.5, S 1.81, T 1.73, V 1.75, W 2.4, Y 1.47
F19: A 2.77, C 2.04, D 3.27, E 3.76, G 3.17, H 3.06, I 1.88, K 3.32, L 2.22, M 2.14, N 3.43, P 2.72, Q 2.79, R 2.88, S 2.42, T 2.55, V 1.98, W 2.12, Y 2.5
G20: A 3.14, D 2.27, E 2.95, F 1.55, H 1.62, I 1.91, K 2.19, L 1.75, M 2.09, N 2.38, P 1.64, Q 2.55, R 2.1, S 2.04, T 1.28, V 1.96, W 2.97, Y 1.46
R21: A 1.74, C 1.47, D 3, E 2.5, F 1.9, G 2.42, H 2.04, I 2.19, K 1.87, L 1.53, M 1.37, N 2.3, P 1.98, Q 2.09, S 2.22, T 2.08, V 2.42, W 2.08, Y 1.65
Y22: A 2.39, C 2.44, D 2.89, E 2.58, F 1.91, G 2.85, H 2.69, I 1.85, K 3.58, L 1.62, M 2.1, N 2.71, P 2.67, Q 2.74, R 2.98, S 2.58, T 2.03, V 2.28, W 3.81
L23: A 2.59, C 2.26, D 2.9, E 2.26
